Results published in US20180371086A1.

Biological target: human CD3, on primary human T cells (human) (UniProt P07766)
Assay: cell-based or functional assay

human CD3, on primary human T cells (human), sequence (P07766 23-207 limits assumed): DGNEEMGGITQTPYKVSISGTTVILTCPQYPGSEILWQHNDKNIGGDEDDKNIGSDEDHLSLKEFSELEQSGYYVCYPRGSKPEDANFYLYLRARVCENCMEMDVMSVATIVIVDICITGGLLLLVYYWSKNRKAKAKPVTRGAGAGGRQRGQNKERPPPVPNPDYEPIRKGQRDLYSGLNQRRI

PGT-121.60 (antibody) was tested, and the Ki-67 EC50; CD4 T cells; donor D1597; 7552-infected CEM cells was over 100 µg/mL, the Ki-67 EC50; CD4 T cells; donor D1597; THRO-infected CEM cells was over 100 µg/mL and the Ki-67 EC50; CD4 T cells; donor D1597; uninfected CEM cells was over 100 µg/mL. It also gave a Ki-67 EC50; CD4 T cells; donor D2256; 7552-infected CEM cells of over 100 µg/mL, a Ki-67 EC50; CD4 T cells; donor D2256; THRO-infected CEM cells of over 100 µg/mL and a Ki-67 EC50; CD4 T cells; donor D2256; uninfected CEM cells of over 100 µg/mL. For the same substance, the Ki-67 EC50; CD4 T cells; donor D4246; 7552-infected CEM cells was over 100 µg/mL, the Ki-67 EC50; CD4 T cells; donor D4246; THRO-infected CEM cells was over 100 µg/mL and the Ki-67 EC50; CD4 T cells; donor D4246; uninfected CEM cells was over 100 µg/mL. For the same substance, the Ki-67 EC50; CD4 T cells; donor D4279; 7552-infected CEM cells was over 100 µg/mL, the Ki-67 EC50; CD4 T cells; donor D4279; THRO-infected CEM cells was over 100 µg/mL and the Ki-67 EC50; CD4 T cells; donor D4279; uninfected CEM cells was over 100 µg/mL. It also gave a Ki-67 EC50; CD8 T cells; donor D1597; 7552-infected CEM cells of over 100 µg/mL, a Ki-67 EC50; CD8 T cells; donor D1597; THRO-infected CEM cells of over 100 µg/mL and a Ki-67 EC50; CD8 T cells; donor D1597; uninfected CEM cells of over 100 µg/mL. For the same substance, the Ki-67 EC50; CD8 T cells; donor D2256; 7552-infected CEM cells was over 100 µg/mL, the Ki-67 EC50; CD8 T cells; donor D2256; THRO-infected CEM cells was over 100 µg/mL and the Ki-67 EC50; CD8 T cells; donor D2256; uninfected CEM cells was over 100 µg/mL. The Ki-67 EC50; CD8 T cells; donor D4246; 7552-infected CEM cells was over 100 µg/mL, the Ki-67 EC50; CD8 T cells; donor D4246; THRO-infected CEM cells was over 100 µg/mL and the Ki-67 EC50; CD8 T cells; donor D4246; uninfected CEM cells was over 100 µg/mL. For the same substance, the Ki-67 EC50; CD8 T cells; donor D4279; 7552-infected CEM cells was over 100 µg/mL, the Ki-67 EC50; CD8 T cells; donor D4279; THRO-infected CEM cells was over 100 µg/mL and the Ki-67 EC50; CD8 T cells; donor D4279; uninfected CEM cells was over 100 µg/mL. For the same substance, the Ki-67 Δ Emax; CD4 T cells; donor D1597; 7552-infected CEM cells was 1%, the Ki-67 Δ Emax; CD4 T cells; donor D1597; THRO-infected CEM cells was -1% and the Ki-67 Δ Emax; CD4 T cells; donor D1597; uninfected CEM cells was 1%. For the same substance, the Ki-67 Δ Emax; CD4 T cells; donor D2256; 7552-infected CEM cells was 0%, the Ki-67 Δ Emax; CD4 T cells; donor D2256; THRO-infected CEM cells was -2% and the Ki-67 Δ Emax; CD4 T cells; donor D2256; uninfected CEM cells was 0%. The Ki-67 Δ Emax; CD4 T cells; donor D4246; 7552-infected CEM cells was 0%, the Ki-67 Δ Emax; CD4 T cells; donor D4246; THRO-infected CEM cells was 0% and the Ki-67 Δ Emax; CD4 T cells; donor D4246; uninfected CEM cells was 0%. It also gave a Ki-67 Δ Emax; CD4 T cells; donor D4279; 7552-infected CEM cells of -1%, a Ki-67 Δ Emax; CD4 T cells; donor D4279; THRO-infected CEM cells of 1% and a Ki-67 Δ Emax; CD4 T cells; donor D4279; uninfected CEM cells of 1%. The Ki-67 Δ Emax; CD8 T cells; donor D1597; 7552-infected CEM cells was 0%, the Ki-67 Δ Emax; CD8 T cells; donor D1597; THRO-infected CEM cells was 0% and the Ki-67 Δ Emax; CD8 T cells; donor D1597; uninfected CEM cells was 0%. For the same substance, the Ki-67 Δ Emax; CD8 T cells; donor D2256; 7552-infected CEM cells was 0%, the Ki-67 Δ Emax; CD8 T cells; donor D2256; THRO-infected CEM cells was 0% and the Ki-67 Δ Emax; CD8 T cells; donor D2256; uninfected CEM cells was 0%. The Ki-67 Δ Emax; CD8 T cells; donor D4246; 7552-infected CEM cells was 0%, the Ki-67 Δ Emax; CD8 T cells; donor D4246; THRO-infected CEM cells was 0% and the Ki-67 Δ Emax; CD8 T cells; donor D4246; uninfected CEM cells was 0%. For the same substance, the Ki-67 Δ Emax; CD8 T cells; donor D4279; 7552-infected CEM cells was 0%, the Ki-67 Δ Emax; CD8 T cells; donor D4279; THRO-infected CEM cells was 0% and the Ki-67 Δ Emax; CD8 T cells; donor D4279; uninfected CEM cells was 0%. For the same substance, the PD-1 EC50; CD4 T cells; donor D1597; 7552-infected CEM cells was over 100 µg/mL, the PD-1 EC50; CD4 T cells; donor D1597; THRO-infected CEM cells was over 100 µg/mL and the PD-1 EC50; CD4 T cells; donor D1597; uninfected CEM cells was over 100 µg/mL. For the same substance, the PD-1 EC50; CD4 T cells; donor D2256; 7552-infected CEM cells was over 100 µg/mL, the PD-1 EC50; CD4 T cells; donor D2256; THRO-infected CEM cells was over 100 µg/mL and the PD-1 EC50; CD4 T cells; donor D2256; uninfected CEM cells was over 100 µg/mL. The PD-1 EC50; CD4 T cells; donor D4246; 7552-infected CEM cells was over 100 µg/mL, the PD-1 EC50; CD4 T cells; donor D4246; THRO-infected CEM cells was over 100 µg/mL and the PD-1 EC50; CD4 T cells; donor D4246; uninfected CEM cells was over 100 µg/mL. The PD-1 EC50; CD4 T cells; donor D4279; 7552-infected CEM cells was over 100 µg/mL, the PD-1 EC50; CD4 T cells; donor D4279; THRO-infected CEM cells was over 100 µg/mL and the PD-1 EC50; CD4 T cells; donor D4279; uninfected CEM cells was over 100 µg/mL. It also gave a PD-1 EC50; CD8 T cells; donor D1597; 7552-infected CEM cells of over 100 µg/mL, a PD-1 EC50; CD8 T cells; donor D1597; THRO-infected CEM cells of over 100 µg/mL and a PD-1 EC50; CD8 T cells; donor D1597; uninfected CEM cells of over 100 µg/mL. The PD-1 EC50; CD8 T cells; donor D2256; 7552-infected CEM cells was over 100 µg/mL, the PD-1 EC50; CD8 T cells; donor D2256; THRO-infected CEM cells was over 100 µg/mL and the PD-1 EC50; CD8 T cells; donor D2256; uninfected CEM cells was over 100 µg/mL. The PD-1 EC50; CD8 T cells; donor D4246; 7552-infected CEM cells was over 100 µg/mL, the PD-1 EC50; CD8 T cells; donor D4246; THRO-infected CEM cells was over 100 µg/mL and the PD-1 EC50; CD8 T cells; donor D4246; uninfected CEM cells was over 100 µg/mL. The PD-1 EC50; CD8 T cells; donor D4279; 7552-infected CEM cells was over 100 µg/mL, the PD-1 EC50; CD8 T cells; donor D4279; THRO-infected CEM cells was over 100 µg/mL and the PD-1 EC50; CD8 T cells; donor D4279; uninfected CEM cells was over 100 µg/mL. The PD-1 Δ Emax; CD4 T cells; donor D1597; 7552-infected CEM cells was 0%, the PD-1 Δ Emax; CD4 T cells; donor D1597; THRO-infected CEM cells was 1% and the PD-1 Δ Emax; CD4 T cells; donor D1597; uninfected CEM cells was 0%. For the same substance, the PD-1 Δ Emax; CD4 T cells; donor D2256; 7552-infected CEM cells was -2%, the PD-1 Δ Emax; CD4 T cells; donor D2256; THRO-infected CEM cells was 1% and the PD-1 Δ Emax; CD4 T cells; donor D2256; uninfected CEM cells was 3%. The PD-1 Δ Emax; CD4 T cells; donor D4246; 7552-infected CEM cells was 2%, the PD-1 Δ Emax; CD4 T cells; donor D4246; THRO-infected CEM cells was 0% and the PD-1 Δ Emax; CD4 T cells; donor D4246; uninfected CEM cells was 0%. For the same substance, the PD-1 Δ Emax; CD4 T cells; donor D4279; 7552-infected CEM cells was 1%, the PD-1 Δ Emax; CD4 T cells; donor D4279; THRO-infected CEM cells was -2% and the PD-1 Δ Emax; CD4 T cells; donor D4279; uninfected CEM cells was -1%. For the same substance, the PD-1 Δ Emax; CD8 T cells; donor D1597; 7552-infected CEM cells was 0%, the PD-1 Δ Emax; CD8 T cells; donor D1597; THRO-infected CEM cells was 0% and the PD-1 Δ Emax; CD8 T cells; donor D1597; uninfected CEM cells was 0%. For the same substance, the PD-1 Δ Emax; CD8 T cells; donor D2256; 7552-infected CEM cells was 0%, the PD-1 Δ Emax; CD8 T cells; donor D2256; THRO-infected CEM cells was -1% and the PD-1 Δ Emax; CD8 T cells; donor D2256; uninfected CEM cells was 0%. For the same substance, the PD-1 Δ Emax; CD8 T cells; donor D4246; 7552-infected CEM cells was 0%, the PD-1 Δ Emax; CD8 T cells; donor D4246; THRO-infected CEM cells was 0% and the PD-1 Δ Emax; CD8 T cells; donor D4246; uninfected CEM cells was -1%. It also gave a PD-1 Δ Emax; CD8 T cells; donor D4279; 7552-infected CEM cells of 0%, a PD-1 Δ Emax; CD8 T cells; donor D4279; THRO-infected CEM cells of 0% and a PD-1 Δ Emax; CD8 T cells; donor D4279; uninfected CEM cells of 0%.
